Earlier results on 1 substance are cited in publication PMC2478715.

Bounds are passed on as bounds.

The test system of the data set is HMGB1 (purified from mammalian source) (rat (liver nuclei), human (HeLa) or monkey (CV1); preparation per gel not specified). The data set can be described thus: cited value; method not stated here. The conditions noted are these: 50 mM NaCl, 25 mM Tris-HCl pH 7.5, 1 mM DTT, 1 mM EDTA, 0.1% Triton X-100, 100 ug/mL BSA, 2% glycerol, 25 uL, 20 min at 37 C; 4% PAGE in 0.5x TBE at room ….

The term Kd denotes the equilibrium constant for the complex coming apart. In the case of “hcDNA (hemicatenated DNA loop, 120 bp fragment)”, the equilibrium dissociation constant (Kd) is less than 0.15 pM.
